Measured values taken from article PMC7019770.

Target: PRRSV SD16 virions (PRRSV-2 strain SD16)
Assay: ELISA-based virus capture assay
Settings: plates coated with PRA mutant proteins; detection with PRRSV-convalescent swine serum and HRP-labeled goat anti-swine IgG; parent: est. 1.3; read off a plot

Substance	response
PRA, C-terminal domain of MYH9 (recombinant, wild type) E1670A	0.95 OD450
PRA, C-terminal domain of MYH9 (recombinant, wild type) E1670A; K1673A; E1679A; I1683A	1.1 OD450
PRA, C-terminal domain of MYH9 (recombinant, wild type) E1679A	0.99 OD450
PRA, C-terminal domain of MYH9 (recombinant, wild type) I1683A	0.88 OD450
PRA, C-terminal domain of MYH9 (recombinant, wild type) K1673A	0.9 OD450
